# From US20160303217A1 (published 2016)
# B1: H. parasuis TbpB 27-577 (amino acid 27-577) derived from the Nagasaki strain Hp5, purified recombinant truncated protein (protein)
# chain: FDLEDVQPNKTTGVSKEEYQDVETDKKVKEQLGELMEPALGYVVKVPVSQSGARRTEISNPEAITDEDLKKIPNHETIKSVAEQNYGWVVDKTADKTMKYVRSGYAIDVDHYGTRDKGYVFYKGINPSKELPQGLVLTYQGEWDFTSDANLDAKRPNSNPEFNGYGPGQRIATTSANAKGRTYTSEFEVDFSAKKLKGKLNSKTANTESLERYSIEAEPKGNRFRGKAIAKDTSDAILGKSSDYLEGGFYGPKAEELAGKFITNDKSLFAVFSAKHNGSNVDTVRIIDASKIDLTHFNSSELTNFGDASVLIIDGKKMDLAGTDFKNSKTIEINGKTMVAVACCSNLEYMKFGQLWQKEGETAKDNSLFLQGERTTTDKMPKGGNYKYIGTWDAQVSKENNWVATADDDRKAGYRTEFDVDFGNKNLSGKLFDKNGVNPVFTVDAKINGNGFTGKAKTSDAGFALDSDSSRYDNVKFSDVAVNGGFYGPTAAELGGQFFHKSDNGSVGAIFGAKRQVKK
# B2: porcine transferrin (ligand)
# chain: VAQKTVRWCTISNQEANKCSSFRENMSKAVKNGPLVSCVKKSSYLDCIKAIRDKEADAVTLDAGLVFEAGLAPYNLKPVVAEFYGQKDNPQTHYYAVAVVKKGSNFQWNQLQGKRSCHTGLGRSAGWIIPMGLLYDQLPEPRKPIEKAVASFFSSSCVPCADPVNFPKLCQQCAGKGAEKCACSNHEPYFGYAGAFNCLKEDAGDVAFVKHSTVLENLPDKADRDQYELLCRDNTRRPVDDYENCYLAQVPSHAVVARSVDGQEDSIWELLNQAQEHFGRDKSPDFQLFSSSHGKDLLFKDSANGFLKIPSKMDSSLYLGYQYVTALRNLREEISPDSSKNECKKVRWCAIGHEETQKCDAWSINSGGKIECVSAENTEDCIAKIVKGEADAMSLDGGYIYIAGKCGLVPVLAENYKTEGENCVNTPEKGYLAVAVVKKSSGPDLNWNNLKGKKSCHTAVDRTAGWNIPMGLLYNKINSCKFDQFFGEGCAPGSQRNSSLCALCIGSERAPGRECLANNHERYYGYTGAFRCLVEKGDVAFVKDQVVQQNTDGKNKDDWAKDLKQMDFELLCQNGAREPVDNAENCHLARAPNHAVVARDDKVTCVAEELLKQQAQFGRHVTDCSSSFCMFKSNTKDLLFRDDTQCLARVGKTTYESYLGADYITAVANLRKCSTSKLLEACTFHSAKNPRVETTT
# How the values were obtained:
# porcine transferrin = target: B2; experiment: BLI
# [1] = target: A. pleuropneumoniae TbpB 26-528 (amino acid 26-528) derived from strain H87, purified recombinant truncated …; experiment: SPR
# [2] = target: T1, A. pleuropneumoniae TbpB 20-528 (amino acid 20-528) derived from strain H49, purified recombinant truncated …; experiment: SPR
# [3] = target: T1, A. pleuropneumoniae TbpB 20-528 (amino …); experiment: ITC
binder,measurement,setting,value
B1,Kd,porcine transferrin,21 nM
B2,Kd,[1],60 nM
same,Kd,[2],44 nM
same,Kd,[3],55 nM
